Source: article doi:10.1101/2023.06.06.543969 (bioRxiv, 2023)

Biological target: biotinylated SARS-CoV-2 fusion peptide (Severe acute respiratory syndrome …, biotin on the N-terminus)
Assay: BLI
Details: both partners purified

B1: COV44–62 Fab VH R50W (Fab, V domains shown)
VH: QMQLMQSGAEVKKPGASVTVSCKASGDTFSDYRIHWVRQAPGQGLEWMGWMNPKSGDTNFAQKFQGRVTMTRDMSINTAYMTLSGLTFDDTALYYCASLLIVGGFDPLDDFEVWGQGTMVTISS
VL: QSALTQPPSASGSPGQSVTISCSGTSSDVGGYNFVSWYQHHPGKAPKILIYEVTKRPSGVPDRFSGSKSGNTASLTVSGLQAEDEADYYCSSYGGTNNLLFGGGTKLTVL
- binding result: no binding (tested: 300 nM)
